This data set in a line: label from the status in PepcDB records.
In the case of “MTAIYIGVMTGTSMDGVDFVAASFDPLHIHATLTLPFEPALRDELMALTLPGDNEIDRMGKADVGLAKLIGHGINMLIEQNHLDRHVIKAIGSHGQTIRHRPEHGFTLQIGDPHIITELTGIPVISDFRRRDMAAGGQGAPLVPAFHQAIFQHSTIHRVILNLGGIANVSLLPAGNPDGVYGFDTGPANILMDAWCERYTGHPYDENGNWAAYGQPIRALLERLQAHEFFSKKPPKSTGREDFNLDWLDDQLADWRNDELEYDELEDTPENVQATLLKLTTRAIKKAIYRSELDTGEVYVCGGGAYNSHLLEQLRWRLRKHHWSVQSTSVLGLSPTWVEATAFAWLAMRFMQQQSANLPSVTGAAGFRILGTITSV”, the protein production entry is recorded as “failed”.

As to “MKTSRSSIGKSIFLAATMLATGSAAWAGQAPGALSSPDIPISHHDRVYAAEQFSNTVSVTDPVDNKLLGVIRLGDPQPGNFSPLYKGQVLVHGMGFSPDHKMLAVVSIGSNSVTFIDTATNAVKHTTYIGRSPHEAFFTPDGKEVWVTVRGENYISVIDPQSFEERRRITTPSGPGMQMFSPDGKYAYICSSFNPETDVVAVAEHKIIAKVKQESPFCPNIAVTPDGNQVWFTLKDTGRTQVFNARPPFNPIRTIDTGPITNHVNFAHTARGTFAYVTIGGLNQVKVFRTDDFSQVATIPVGNLPHGVWPSGDGTRIYVGLENADALAAIDTATNSVVANVPIGQAPQAIAYVPGAAPNPDDRQNLQALGVAGQFAHLALASRDGSKDGKAPTSVSLFDQGLIQILQASVTGLEPRQKYVLALAEHGDGSGTLQPLAAFMTNPAGSAIVNAAGPIRQIVDQSAAAARRYLVIASGDVAMPGEAVQIEAQ”, the protein production entry is “failed”.

With “MLPAQDTRGKGLSLARRLYRSRTLGLALGFFCVAAGMAPLQPAPWVWGFMLFNAFAWPHLAYQWARLARVPFRAEYRNLLVDSLLGGFWVGAMHFNPLPLATTLGMMAMNNMALGGLRFFLAGSAAQVLGMGVALWLFGPAFVAQTTPEQVYACLPMLTLYPLALGYICYQQAVTLGRHKRELLALSRTDSLTGLLNHGAWKDQLEIEFQRCKRQAHGGAIALIDIDHFKAINDTYGHVAGDVVLRQLSKLLRQNLRVSDQAGRYGGDEFCVILPDVPLAHAAELMEALRGRFGALGYEQSPALQVSLSIGLAAFNPLHDDAMGWLNDADQALYAAKTCGRNNVTCHPPEQPSRRLLNSL”, the protein production result is “failed”.

Take “MMDVNSSGRPDLYGHLRSFLLPEVGRGLPDLSPDGGADPVAGSWAPHLLSEVTASPAPTWDAPPDNASGCGEQINYGRVEKVVIGSILTLITLLTIAGNCLVVISVCFVKKLRQPSNYLIVSLALADLSVAVAVMPFVSVTDLIGGKWIFGHFFCNVFIAMDVMCCTASIMTLCVISIDRYLGITRPLTYPVRQNGKCMAKMILSVWLLSASITLPPLFGWAQNVNDDKVCLISQDFGYTIYSTAVAFYIPMSVMLFMYYQIYKAARKSAAKHKFPGFPRVEPDSVIALNGIVKLQKEVEECANLSRLLKHERKNISIFKREQKAATTLGIIVGAFTVCWLPFFLLSTARPFICGTSCSCIPLWVERTFLWLGYANSLINPFIYAFFNRDLRTTYRSLLQCQYRNINRKLSAAGMHEALKLAERPERPEFVLITRTSGVHQALENFPWGNEVNRWRKSCEYFCTDKMLTTVEKKVMIHD”: the protein production result is listed as “failed”.

For “MFSLKNYSPSPLLSAKAKEYLVFTLVTLTIVVAGTLLFLFDPASSKLFPPSPFRSLTGLYCPGCGTLRALHQLLHGNLVGAFGLNPLMMISLPFMIYSYVAYGLKTINGRTLLVWFVPPKVIWFILQAILAYWVARNIPFAPFSWLAP”, the protein production result is “failed”.

For “MRQTQVKSPYCHQSNYKLAIAIITVITGTVVTGATVTTGTAIMNGVKTAGGIMIMATIVAGISVKRMNVAIVKAGAIVTIIVEKAADMDTAIKHIRQWSTMPDATLARLIRPTNQLFNA”, the protein production entry is “failed”.

With “MEKDKKTTAKIYPFYPNGQFYFERGVEAFREQRIKEAIRYLVRASELEPGEPVILCQLAICYTEIGQFHKSNQLLREIMEKRLGNMEYCYYFIANNFAYMKDYRRALQYASRYLEIAADGDYAEEAKDLIEVLLEETPFGETIENGFSKLEQEFYSYKKEINRYLAEEDSASACDILKKVIDEKPNFWPAYNQLAALYFEQLKEEEGVKVLSDLIARNPGNLLGLCDLFIYHFYKGNREEADSLYSELRDVLPVLSHHKEKIGLIHAMMGDYEEADDLLEQVADLEVTERSKYYYYRAKSAYYLDEVEEAKMFWHSFLECDLYEDTRFPWEQEADLTNDTRLVLEMLQAESDMTHLLGVYAMTVSGNRPEFVLFHPLLDMSSWSYMEHLMFTDFDYFPDGNVEQNCYLIMKAMTILRENGLLLNEENLPLYETIFSLVLMENRKELILGRYTIETVASAIAKIFLPEMKLASVDEFECSKCARDIEQFLSR”, the protein production entry is “failed”.

With “MPTFDHGNLSLGELELTVLYDEERYDIVEQTETVQVDLEGPRGVLTVFRFARPSYEVFVDLTEAGEGSHTVDVEHRGFPGDLAVTVEPRMARVQLEERQTVSVPVTVEMINLEHHHHHH”, the protein production entry is recorded as “not failed”.

In the case of “QAPLRIECTDISHIQGTDVVASLVVFEDGLPRKSDYRRYRVKEAAGDGHSNDVASIAEITRRRFLRHNQDKLAVPEAEEFDGSTFSDEKVEEMSTDARRFAYPPQIFIVDGGAPQVAAAQEVFDELGIVDVVLIGLAKRLEEIWLPGDPDPVILPRNSQALFLLQQIRDEAHRFAITYHRQQRSKRMRVSELDSIKG”, the protein production result was “failed”.

Consider “MLGGNNDNPVPQVLMNDSQFRYQSNTSLNQLHLLGTMRAGCTIDPVNYFANDNLAPMMRLNSTRGRETENNNIMQRQQKLQISLNYNYNNNNTVVQDEVPKQNLVSTGLRLSYDDDERNSSVTSANGSITTPVYQSLGDNIRLDLNRQNDELDQFIKFRADQMAKGVRDIKQRHVTSFVTALEKDVSKKLQEKDHEIESMNKKNRELVDKIKQVAVEAQNWHYKAKYNESVVNALKVNLQQVMSHGNDNNAVGGGVADHHQMKEGFGDSEIDDEAASYNYLNIPGMPSTGMRCKLCNVKNVSVLLVPCRHLSLCKDCDVFTGVCPVCQSLKTSSVQVFFF”, for which the protein production entry is “failed”.

Take “MGHHHHHHSHMLPVELVRHDVKKTDETSQVELMLQVDPDLFWFNGHFTGQPLLPGVAQLDWVMHYATTVLAQGWTFLSIENIKFQQPILPGKTLRLVLIWHAGKQSLTFSYSILEGDTERTASSGKIKLTPIMEDNPCQ”: the protein production result is given as “not failed”.

For the sequence “AWMHGHRFYVDERVIVPRSFIGELLDDGLQPYVEDPELVGSVLELCTGSGCLAILAALAFPNASVDAVDLSADALAVAKINRDDYGLDERIALHHGDLYAPLPQFKWIDSAQRYDVIITNPPYVNAESMAELPAEYRHEPEMALAGGADGMDIVRRIIGEARRWLKDDGVLVVEIGNERANVEAAFGGLELVWLPTSAGDDSVFLIHASD”, the protein production entry is on record as “failed”.

Turning to “MKSKGRNRLLSLIICICIAFAFSSCVKNDLPYPVVRLSITGFEVNGQIGSAVINNEERTVTVDLLDSVDLKKVIVTRFDYSEEANTDLKVNTTIDLSSPKEVVLSLYQDYRWKIIANQTVERVFSVKNQVGGAVIDEKARQAIVYVNKNTMLNKITVKDLKLGPISSTVSPDFITLKDFTQEQKVNVTFKGKTEEWSLYAFITDKVVFTNSADGWTNVAWLYGEGQEDVVNGFEIREASSEEWTRVDQDIVVQNGVNFYVCVPHLKADTEYVCRALVDGTEDRGEEITFRTTAAIPLTGGTFDNWNQSGKVWNPWGSNETPFWDTGNQGATTLGDSNSVPTEDIWSGKTTGMAAKLESKFVGVGSAGKLAAGNLFVGKYVATDGTNGILNFGQSFSAYPTHLKGYYKYQPGVIDNSSIEYNYLKGRTDTCSIYIAIGDWDSPIEIRTKPSNRKLFDKNDKHVIAYAEFTSGTPVAVYKEFDLKLEYRATNRKPTYIVLVCSASKYGDFFTGASGSVLYVDEFSLEYDYDN”, the protein production result is “failed”.

Regarding “MNPTFHADKPIYSQISDWMKKQMITGEWKGEDKLPSVREMGVKLAVNPNTVSRAYQELERAGYIYAKRGMGSFVTSDKALFDQLKKELADAITERFLEEAKSIGLDDQTAIELLIKRSRNHE”, the protein production result is “not failed”.

For the sequence “MEHSSGTKLLLTLSLFFCLISGAEAADSHALDSGDVNLSELKAFDLLCKCETWGIVNTVSLSSTGNYLVAGGFDRNVSLFDSRGTQLWNYKTEDIVYTVSISSDGSRIVAGSNDKKVYFFNREGDLLWSHKTGGNINSVAVSSNGLYVAAGGEDGKVYFMNSAGKLLWSFDSEAAVRSIAISRDGTYVAVGNANNYVYLFDSEGKTIWNRKTGSLINCVSMTPYAYYVAAGGSNYNVYLFDRKGEFSWMNNPGYWVSSVSLTTNGAYLAAGSFDDMIYLFNRTGGKIWDYKAKDDVYAVEISADSSFIAAGSWDDTLYVLNMDGEELWNYNCGGNINSLDVSRDSTTIAVGSDAGAVYLFERNPTAFALLLGDESFLPEETTKETDTSLAEKTIKPIEEETAVTGGVENKVEDAPATSSSVSGNPKTGENPGSEELPTEESSLKLLEKFDSIKFPAALLLGALAGTVFFLKRRLVKYHEKNDENLEDLEEKDIRE”, the protein production result is given as “failed”.

With “MENKYLVSIIVPVHNTADYLHKCIESLRSQTLQQIEIILVDNLSVDGSSEICDEYAKIDKRIKVLHLSIAGLSIARNAGMRIASAPYIGFVDSDDYVEPAMFEKMLDAMVQSDAEIAYCNFLLEYEFKPNESPYRNSGDIVIRDPKNVLQDMMMEKVSCSACTKLYKSGFLTSLQFPEGKNYEDRLVMYEWVALCKKVVWVDSPFYHYVERQTSICHTMSPMNLYHYFLAEYARMRFMEKYSLFEEEDLFKIRTRLIGTCLTIFKEILLKVNLREFKEPVKDMRQKMKEIAALPEDTYELKYRRRVRKIAYHWHLYYLTHFLFKKGGDSLEHHHHHH”, the protein production entry is listed as “failed”.

Turning to “MNSIKNVPARVLSRRPGHSLEAEREQFDKTQAISISKAINTQEAPVKEKHARRIILGTHHEKGAFTFWSYAIGLPLPSSSILSWKFCHVLHKVLRDGHPNVLHDCQRYRSNIREIGDLWGHLHDRYGQLVNVYTKLLLTKISFHLKHPQFPAGLEVTDEVLEKAAGTDVNNIFQLTVEMFDYMDCELKLSESVFRQLNTAIAVSQMSSGQCRLAPLIQVIQDCSHLYHYTVKLLFKLHSCLPADTLQGHRDRFHEQFHSLRNFFRRASDMLYFKRLIQIPRLPEGPPNFLRASALAEHIKPVVVIPEEAPEDEEPENLIEISTGPPAGEPVVVADLFDQTFGPPNGSVKDDRDLQIESLKREVEMLRSELEKIKLEAQRYIAQLKSQVNALEGELEEQRKQKQKALVDNEQLRHELAQLRAAQLEGERSQGLREEAERKASATEARYNKLKEKHSELVHVHAELLRKNADTAKQLTVTQQSQEEVARVKEQLAFQVEQVKRESELKLEEKSDQLEKLKRELEAKAGELARAQEALSHTEQSKSELSSRLDTLSAEKDALSGAVRQREADLLAAQSLVRETEAALSREQQRSSQEQGELQGRLAERESQEQGLRQRLLDEQFAVLRGAAAEAAGILQDAVSKLDDPLHLRCTSSPDYLVSRAQEALDAVSTLEEGHAQYLTSLADASALVAALTRFSHLAADTIINGGATSHLAPTDPADRLIDTCRECGARALELMGQLQDQQALRHMQASLVRTPLQGILQLGQELKPKSLDVRQEELGAVVDKEMAATSAAIEDAVRRIEDMMNQARHASSGVKLEVNERILNSCTDLMKAIRLLVTTSTSLQKEIVESGRGAATQQEFYAKNSRWTEGLISASKAVGWGATQLVEAADKVVLHTGKYEELIVCSHEIAASTAQLVAASKVKANKHSPHLSRLQECSRTVNERAANVVASTKSGQEQIEDRDTMDFSGLSLIKLKKQEMETQVRVLELEKTLEAERMRLGELRKQHYVLAGASGSPGEEVAIRPSTAPRSVTTKKPPLAQKPSVAPRQDHQLDKKDGIYPAQLVNY”, the protein production entry is recorded as “not failed”.

Values taken from a protein production outcome set (Wang et al. 2014).
